Experimental data reported in US20100278837A1, “Compositions And Methods For Reducing Cancer And Inflammation” (The Regents of the University of California, priority 2009, published 2010).

B1: mouseVCAM-1/humanFc fusion protein (R&D Systems) (Fc fusion, UniProt P29533 25-698, looked up)
chain: FKIEISPEYKTIAQIGDSMALTCSTTGCESPLFSWRTQIDSPLNAKVRTEGSKSVLTMEPVSFENEHSYLCTATCGSGKLERSIHVDIYSFPKDPEIQFSGPLEVGKPVTVKCLAPDIYPVYRLEIDLFKGDQLMNRQEFSSEEMTKSLETKSLEVTFTPVIEDIGKALVCRAKLHIDQIDSTLKERETVKELQVYISPRNTTISVHPSTRLQEGGAVTMTCSSEGLPAPEIFWGRKLDNEVLQLLSGNATLTLIAMRMEDSGVYVCEGVNLIGRDKAEVELVVQEKPFIVDISPGSQVAAQVGDSVVLTCAAIGCDSPSFSWRTQTDSPLNGVVRNEGAKSTLVLSSVGFEDEHSYLCAVTCLQRTLEKRTQVEVYSFPEDPVIKMSGPLVHGRPVTVNCTVPNVYPFDHLEIELLKGETTLMKKYFLEEMGIKSLETKILETTFIPTIEDTGKSLVCLARLHSGEMESEPKQRQSVQPLYVNVAPKETTIWVSPSPILEEGSPVNLTCSSDGIPAPKILWSRQLNNGELQPLSENTTLTFMSTKRDDSGIYVCEGINEAGISRKSVELIIQVSPKDIQLTVFPSKSVKEGDTVIISCTCGNVPETWIILKKKAKTGDMVLKSVDGSYTIRQAQLQDAGIYECESKTEVGSQLRSLTLDVKGKEHNKDYFSPE
notes: Bought reagent; Detected with donkey anti-human-FC-PE; also called VCAM-1/Fc; VCAM-1/FC; not shown: human Fc
B2: murine integrin α4Y991A β1 of CD11b+ myeloid cells from α4Y991A knockin mice (receptor, mouse)
chain 1: YNLDPENALLYQGPSGTLFGYSVVLHSHGSKRWLIVGAPTASWLSNASVVNPGAIYRCGIRKNPNQTCEQLQSGSPSGEPCGKTCLEERDNQWLGVTLSRQPGENGSIVTCGHRWKNIFYMKSDNKLPTGICYVMPSDLRTELSKRMAPCYKDYTRKFGENFASCQAGISSFYTQDLIVMGAPGSSYWTGTVFVYNITTNQYKAFVDRQNQVKFGSYLGYSVGAGHFRSPHTTEVVGGAPQHEQIGKAYIFSIDENELNIVYEMKGKKLGSYFGASVCAVDLNADGFSDLLVGAPMQSTIREEGRVFVYINSGMGAVMVEMERVLVGSDKYAARFGESIANLGDIDNDGFEDIAIGAPQEDDLRGAVYIYNGRVDGISSTYSQRIEGQQISKSLRMFGQSISGQIDADNNGYVDVAVGAFQSDSAVLLRTRPVVIVEASLSHPESVNRTKFDCTENGLPSVCMHLTLCFSYKGKEVPGYIVLFYNVSLDVHRKAESPSRFYFFSNGTSDVITGSIRVSSSGEKCRTHQAFMRKDVRDILTPIHVEATYHLGHHVITKRNTEEFPPLQPILQQKKEKDVIRKMINFARFCAYENCSADLQVSAKVGFLKPYENKTYLAVGSMKTIMLNVSLFNAGDDAYETTLNVQLPTGLYFIKILDLEEKQINCEVTESSGIVKLACSLGYIYVDRLSRIDISFLLDVSSLSRAHEDLSISVHASCENEGELDQVRDNRVTLTIPLRYEVMLTVHGLVNPTSFVYGSSEENEPETCMAEKLNLTFHVINTGISMAPNVSVKIMVPNSFLPQDDKLFNVLDVQTTTGQCHFKHYGRECTFAQQKGIAGTLTDIVKFLSKTDKRLLYCMKADQHCLDFLCNFGKMESGKEASVHIQLEGRPSILEMDETSSLKFEIKATAFPEPHPKVIELNKDENVAHVFLEGLHHQRPKRHFTIIIITISLLLGLIVLLLISCVMWKAGFFKRQYKSILQEENRRDSWSAVNSKSNDD
chain 2: QTDKNRCLKANAKSCGECIQAGPNCGWCTNTTFLQEGMPTSARCDDLEALKKKGCQPSDIENPRGSQTIKKNKNVTNRSKGMAEKLRPEDITQIQPQQLLLKLRSGEPQKFTLKFKRAEDYPIDLYYLMDLSYSMKDDLENVKSLGTDLMNEMRRITSDFRIGFGSFVEKTVMPYISTTPAKLRNPCTSEQNCTSPFSYKNVLSLTDRGEFFNELVGQQRISGNLDSPEGGFDAIMQVAVCGSLIGWRNVTRLLVFSTDAGFHFAGDGKLGGIVLPNDGQCHLENNVYTMSHYYDYPSIAHLVQKLSENNIQTIFAVTEEFQPVYKELKNLIPKSAVGTLSGNSSNVIQLIIDAYNSLSSEVILENSKLPDGVTINYKSYCKNGVNGTGENGRKCSNISIGDEVQFEISITANKCPNKESETIKIKPLGFTEEVEVVLQFICKCNCQSHGIPASPKCHEGNGTFECGACRCNEGRVGRHCECSTDEVNSEDMDAYCRKENSSEICSNNGECVCGQCVCRKRDNTNEIYSGKFCECDNFNCDRSNGLICGGNGVCRCRVCECYPNYTGSACDCSLDTGPCLASNGQICNGRGICECGACKCTDPKFQGPTCETCQTCLGVCAEHKECVQCRAFNKGEKKDTCAQECSHFNLTKVESREKLPQPVQVDPVTHCKEKDIDDCWFYFTYSVNGNNEAIVHVVETPDCPTGPDIIPIVAGVVAGIVLIGLALLLIWKLLMIIHDRREFAKFEKEKMNAKWDTGENPIYKSAVTTVVNPKYEGK
notes: whole, on cells; It may be mature-chain numbering and may not match the precursor entry; also called α4YA; YA

Assays:
[1] = system: CD11b+ cells adhesion to endothelium; experiment: Adhesion of CD11b+ cells to endothelium (Example 1 adhesion assay); type: cell-based, murine; conditions: SDF-1α, TCM or IL-1β (and other chemoattractant) induced
Method: TCM was prepared from serum-free media cultured on LLC cells for 18 h and filtered through 0.22 μm filters. 10^5 calcein-AM labelled human or murine CD11b+ cells in TCM or DMEM containing 200 ng/ml SDF-1α, IL-1β, IL-6, IL-8 or VEGF-A (R&D Systems) were incubated on HUVEC monolayers or on plastic plates coated with 5 μg/ml recombinant soluble VCAM-1 (R&D Systems). Adherent cells were quantified using a fluorescence activated plate reader (GeniosPro, TECAN). In some assays, cells were also incubated in 25 μg/ml anti-integrin α4β1 (PS2 for murine cells and HP2/1 for human cells, gifts from Biogen-Idec) and isotype control antibodies (IgG2bk for murine cells and IgG1 for human cells). In some studies, cells were incubated in 10 μM pan PI3K inhibitors […] or TG020, in PI3kinase α inhibitor PI3K75, PI3kinase γ/δ inhibitor TG115 and an inert control.

integrin α4 = experiment: Integrin α4 clustering in CD11b+ cells; type: cell-based; conditions: SDF-1α or IL-1β induced
Method: Activation of human CD29 (integrin β1 chain) in cytokine stimulated human CD11b+ cells was quantified by flow cytometry using HUTS-21 antibodies (BD Bioscience). Total β1 integrin levels were assessed using P4C10 antibodies (Chemicon). 2.5×10^6 freshly isolated human myeloid cells/ml in culture medium containing 5% FBS and 0.5% NaN3 were incubated in 10 μg/ml normal human immunoglobulin (12000C, Caltag) for 45 min on ice, then in 2 μg/ml SDF-1α, IL-1β, IL-6 or 1 mM Mn2+ plus 2.5 μg HUTS21, P4C10, or IgG2 control for 10 min at 37° C. followed by Alexa 488 goat-anti mouse antibodies for 20 min on ice. Expression levels of murine integrin α4 on bone marrow derived cells were determined by flow cytometry for PE-conjugated R1/2 (rat anti-CD49d antibody, eBioscience). To induce integrin α4 activation on human myeloid cells or murine WT and α4Y991A myeloid, purified CD11b+ cells were incubated with polystyrene microspheres (9.0 μm diameter, Bangs Laboratories) coated with TCM, 2 μg/ml SDF-1α or IL-1β overnight at 4° C. cells as previously described by Grabovsky et al., 2000. […] Samples were analyzed by Nikon CS1 spectral confocal on a Nikon TE2000E inverted microscopy. Images were captured using EZ-C13.00 imaging software and analyzed using Metamorph software.

[2] = molecular target: B2; experiment: flow cytometry of VCAM-1/Fc on CD11b+ cells (FIG. 27e)
Method: (§1) 5×10⁵ CD11b+ cells isolated from WT, α4Y991A, or PI3-kinase γ−/− mice (naïve or tumour-bearing) were incubated with 200 ng/ml IL-1β, SDF-1α, IL-6, TNFα, VEGF-A or medium together with 1 mg/ml mouseVCAM-1/humanFc fusion protein (R&D Systems) for 3 min. Cells were washed twice and incubated with donkey anti-human-FC-PE antibody (Jackson Immunoresearch) then analysed by FACs Calibur. Mean fluorescence intensity of treated cells was compared to that of unstimulated cells (basal). In other studies, cells from WT mice were untreated or were treated with 1 μM PI3-kinase α, β, or γ inhibitors for 30 min at 37° C. In some experiments GFP/RapV12 or GFP/RasV12 transfected CD11b+ cells were used. In this case, increased mean fluorescence intensity was measured for only GFP-positive cells.

[3] = molecular target: T1, murine integrin α4β1 (wildtype) of CD11b+ myeloid cells (mouse, UniProt Q00651 41-1039; P09055 21-798); experiment: flow cytometry, VCAM-1/Fc on murine CD11b+ cells (FIG. 27e)
T1 construct: whole, on cells; In the co-immunoprecipitations it was precipitated from CHAPS lysates of bone marrow cells with PS/2; also called VLA-4; VLA4
Method: as §1

[4] = molecular target: T2, talin (murine, endogenous in bone marrow derived myeloid cells) (mouse, UniProt P26039 1-2541); experiment: co-immunoprecipitation with PS/2, immunoblot (FIG. 3d)
T2 construct: Detected by immunoblot with anti-talin clone TD77
Method: BM monocytic cells from WT or α4Y991A mice were isolated as described above and treated with either DMEM or TCM for 30 min at 37° C. Cells were rinsed with cold PBS and lysed in Tris-buffered saline containing 1% CHAPS, 20 mM β-glycerophosphate, 1 mM Na₃VO₄, 5 mM NaF, 100 ng/ml microcystin-LR, and protease inhibitor cocktail. Clarified cell lysates were immunoprecipitated as follows: 1 mg total protein was precleared with 10 μl protein G-conjugated Dynabeads (Invitrogen) for 1 hr with rotation. Cleared lysates were incubated with 5 μg of rat anti-α4β1 (PS/2) antibody overnight, followed by adding 25 μl of protein G-conjugated Dynabeads for 3 h with rotation. Beads were washed three times with 1 ml cold PBS containing protease inhibitor cocktail. Protein precipitates were electrophoresed on 10% SDS-PAGE gels and immunoblotted with anti-integrin α4 (C-20, Santa Cruz Biotechnology), anti-talin (Clone TD77, Chemicon) or anti-paxillin (H-114, Santa Cruz Biotechnology) antibodies. Immune complexes were visualized using an enhanced chemiluminescence detection kit (Pierce).
BM cells (comprised of 80% CD11b+Gr1+ cells) from WT or α4Y991A mice were isolated as described above and treated with either DMEM or TCM for 30 min at 37° C. […]

T2 sequence (P26039 whole entry): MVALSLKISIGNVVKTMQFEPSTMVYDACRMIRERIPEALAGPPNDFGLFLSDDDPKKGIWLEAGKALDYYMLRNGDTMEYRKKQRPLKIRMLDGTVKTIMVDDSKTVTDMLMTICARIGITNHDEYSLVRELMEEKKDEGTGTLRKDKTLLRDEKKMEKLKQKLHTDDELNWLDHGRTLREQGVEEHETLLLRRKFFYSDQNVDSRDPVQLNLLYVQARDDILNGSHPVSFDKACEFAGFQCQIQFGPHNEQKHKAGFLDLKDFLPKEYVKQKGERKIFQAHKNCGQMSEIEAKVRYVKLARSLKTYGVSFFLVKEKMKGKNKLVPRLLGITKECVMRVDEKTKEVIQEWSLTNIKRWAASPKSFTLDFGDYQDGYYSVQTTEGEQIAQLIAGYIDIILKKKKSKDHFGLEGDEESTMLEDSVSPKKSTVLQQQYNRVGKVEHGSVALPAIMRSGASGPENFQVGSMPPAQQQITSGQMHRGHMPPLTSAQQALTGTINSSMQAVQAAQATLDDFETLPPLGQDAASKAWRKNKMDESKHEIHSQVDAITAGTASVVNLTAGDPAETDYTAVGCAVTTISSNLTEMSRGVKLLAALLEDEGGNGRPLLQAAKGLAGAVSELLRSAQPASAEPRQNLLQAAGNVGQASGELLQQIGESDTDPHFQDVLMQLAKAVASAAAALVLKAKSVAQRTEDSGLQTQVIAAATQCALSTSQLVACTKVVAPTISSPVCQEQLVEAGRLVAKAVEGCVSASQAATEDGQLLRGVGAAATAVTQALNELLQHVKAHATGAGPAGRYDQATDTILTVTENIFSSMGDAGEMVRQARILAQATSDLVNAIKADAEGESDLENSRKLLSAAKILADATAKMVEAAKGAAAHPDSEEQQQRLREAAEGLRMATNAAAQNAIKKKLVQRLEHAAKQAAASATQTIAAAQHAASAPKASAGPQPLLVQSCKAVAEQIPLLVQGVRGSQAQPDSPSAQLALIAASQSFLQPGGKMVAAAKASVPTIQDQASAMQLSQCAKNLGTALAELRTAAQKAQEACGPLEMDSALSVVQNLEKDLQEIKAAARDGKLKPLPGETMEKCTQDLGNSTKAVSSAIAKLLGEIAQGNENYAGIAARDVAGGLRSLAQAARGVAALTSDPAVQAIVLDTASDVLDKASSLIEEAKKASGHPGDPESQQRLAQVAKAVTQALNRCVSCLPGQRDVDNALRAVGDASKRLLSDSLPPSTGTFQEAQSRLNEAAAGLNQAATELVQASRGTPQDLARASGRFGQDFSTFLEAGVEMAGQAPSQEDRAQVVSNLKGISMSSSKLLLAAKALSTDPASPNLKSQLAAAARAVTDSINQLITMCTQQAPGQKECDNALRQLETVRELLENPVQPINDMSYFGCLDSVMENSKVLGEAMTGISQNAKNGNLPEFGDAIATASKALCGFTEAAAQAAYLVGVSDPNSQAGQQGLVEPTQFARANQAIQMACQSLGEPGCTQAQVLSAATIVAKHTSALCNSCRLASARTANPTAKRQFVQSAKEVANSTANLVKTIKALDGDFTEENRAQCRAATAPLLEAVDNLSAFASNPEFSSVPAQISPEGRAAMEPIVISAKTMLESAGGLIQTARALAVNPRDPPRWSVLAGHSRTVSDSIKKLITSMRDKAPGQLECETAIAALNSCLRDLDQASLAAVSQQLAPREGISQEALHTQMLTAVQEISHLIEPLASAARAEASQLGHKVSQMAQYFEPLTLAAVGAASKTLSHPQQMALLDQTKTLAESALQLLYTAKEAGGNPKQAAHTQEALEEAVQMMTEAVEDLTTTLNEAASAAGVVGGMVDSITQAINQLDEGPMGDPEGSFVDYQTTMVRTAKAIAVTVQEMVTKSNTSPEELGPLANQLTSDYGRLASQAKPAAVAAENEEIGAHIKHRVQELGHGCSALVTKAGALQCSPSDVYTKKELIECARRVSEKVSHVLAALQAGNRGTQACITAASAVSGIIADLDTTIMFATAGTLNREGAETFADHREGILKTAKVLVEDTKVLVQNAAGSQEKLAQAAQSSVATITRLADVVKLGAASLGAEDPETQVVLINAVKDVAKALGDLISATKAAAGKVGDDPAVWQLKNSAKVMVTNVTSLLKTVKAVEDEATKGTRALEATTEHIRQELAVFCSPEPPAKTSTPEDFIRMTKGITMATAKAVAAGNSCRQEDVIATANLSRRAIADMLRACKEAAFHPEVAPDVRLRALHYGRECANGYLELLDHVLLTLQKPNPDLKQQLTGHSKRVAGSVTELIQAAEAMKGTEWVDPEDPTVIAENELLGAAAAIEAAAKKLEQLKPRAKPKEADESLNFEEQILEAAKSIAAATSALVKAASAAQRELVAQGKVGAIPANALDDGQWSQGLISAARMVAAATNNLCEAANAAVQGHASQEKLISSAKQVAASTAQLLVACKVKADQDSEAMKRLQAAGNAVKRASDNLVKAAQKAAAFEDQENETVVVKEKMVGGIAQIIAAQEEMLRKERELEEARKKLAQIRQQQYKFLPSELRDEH

Molecule: pertussis toxin
CD11b+ cell adhesion to endothelium [1]: inhibited SDF-1α, and TCM-induced but not IL-1β induced adhesion
integrin α4 clustering (integrin α4): blocked SDF-1α-induced integrin clustering

Molecule: B1
binding result [2]: no binding
binding result [3]: binds

Molecule: B2
binding result [4]: no binding
